From article PMC3901395, “Multivalent interactions of the SUMO-interaction motifs in RING finger protein 4 determine the specificity for chains of the SUMO” (Biochemical Journal, 2013)

Tests used:
Test in all cases: ITC; VP-ITC or ITC200; 25°C; ITC buffer (50 mM Tris/HCl, pH 7.5, 150 mM NaCl, 2 mM DTT, 5% glycerol); SUMOs titrated into a solution of the RNF4 construct or peptide (legends of Figures 1B, 2B); 20–30 injections up to 2–3-fold molar excess; values averaged from two to six titrations
[1] = target: RNF4 1–125 (RNF4-SIM domain, wt) (human) (UniProt P78317)
RNF4 1–125 (RNF4-SIM domain, wt) (human), sequence (P78317 1-125): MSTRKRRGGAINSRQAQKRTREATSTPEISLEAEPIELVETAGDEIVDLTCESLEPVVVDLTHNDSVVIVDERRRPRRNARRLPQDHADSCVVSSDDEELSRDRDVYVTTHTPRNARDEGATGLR

[2] = target: synthetic tandem PIAS1 SIM peptide
[3] = target: RNF4-SIM2/3 peptide (human)
RNF4-SIM2/3 peptide (human), sequence (P78317 43-65): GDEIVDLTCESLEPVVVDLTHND

linear di-SUMO1 (2×SUMO1-ΔN15) (from UniProt P63165 16-101; P63165 16-101)
Kd [1]: 17 µM

linear di-SUMO2 (2×SUMO2-ΔN11) (from UniProt P61956 12-95; P61956 12-95)
Kd [2]: 3.8 µM
Kd [3]: 8.5 µM
Kd [1]: 14 µM

linear tetra-SUMO1 (4×SUMO1-ΔN15) (from UniProt P63165 16-101; P63165 16-101; P63165 16-101; P63165 16-101)
Kd [1]: 4.3 µM

linear tetra-SUMO2 (4×SUMO2-ΔN11) (from UniProt P61956 12-95; P61956 12-95; P61956 12-95; P61956 12-95)
Kd [1]: 1.6 µM
